From patent US10899842 (dated 2021)
Values belong to the binder of their own block, whether it stands above or below them.

Molecular target: human 4-1BB ECD (human, UniProt Q07011)
Sequence (Q07011 24-186): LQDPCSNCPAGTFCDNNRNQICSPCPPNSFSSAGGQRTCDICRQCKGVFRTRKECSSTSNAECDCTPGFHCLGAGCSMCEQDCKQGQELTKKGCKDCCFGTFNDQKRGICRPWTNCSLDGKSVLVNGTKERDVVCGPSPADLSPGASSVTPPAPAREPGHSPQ

Kd: < 0.001 nM
B1: ZW107 (antibody, V domains shown)
VH: QVQLQQSGAELVRPGTSVKISCKASGYAFTNYWLGWVKQRPGHGLEWIGDIYPGNGNNYYSEKFKDKATLTADKSSSTVYIRLSSLTSEDSAVYFCARHGSFRSAMDYWGQGTSVTVSS
VL: DIQMTQSPASPSASVGETVTITCRASENIYSYLAWYQQKQGKSPQLLVYNAKTLADGVPSRFSGSGSGTQFSLKINSLQPEDFGSYYCQHHYGTPPTFGGGTKLEIK

Kd: 1.2 nM
B2: ZW106 (antibody, V domains shown)
VH: QVQLQQPESELVRPGGSVKLSCKASGYTFTSYWMDWVKQRHGQGLEWIGNIYPDSGGTNYAEKFKSKATLTVDTSSSTAYMHLSSLTSEDSAVYYCTREEALGGYYELTYWGQGTLVTVSA
VL: DIVLTQSPASLPVSLGQRATISCRASQSVSTSSYSYMHWYQQKPGQPPKLLIKYASNLESGVPARFSGSGSGTDFTLNIHPVEEEDTATYYCQHSWEIPYTFGGGTKLEIE

Kd: 0.0474 nM
B3: ZW104 (antibody, V domains shown)
VH: QVQLQQSGAELARPGASVKMSCKASGYIFTTYAMHWVKQRPGQGLEWIGYINPTTVYTIYNQKFKDKATLTADKSSSTAYMQLSSLTSEDSAVYYCARLGGHWYFDVWGAGTTVTVSS
VL: not shown

Kd: 0.265 nM
B4: ZW103 (antibody, V domains shown)
VH: QVQLQQSGAELVRPGVSVKISCKGSGYTFTDYAMHWVKQSHVKSLEWIGGISTYNGDASYNQKFKGKATMTVDKSSRTAYMELVRLTSEDSAIYYCAPSNYGYAMDYWGQGTSVTVSS
VL: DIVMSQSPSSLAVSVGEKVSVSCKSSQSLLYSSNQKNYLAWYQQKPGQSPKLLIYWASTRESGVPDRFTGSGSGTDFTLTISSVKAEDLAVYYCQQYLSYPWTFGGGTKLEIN
